Source: patent US20240336926
pKd: −log10 of the molar value. Where two headings read alike, the source gives them in different places.

How the values were obtained:
[1] = tested on: K-RAS G12D G12D, P01116-2; details: Nap-dU at all n positions; plate ELISA, buffer SB18, 37 C, R2 97.1
[2] = target: Human serum albumin (HSA) (Homo sapiens) (UniProt P02768); details: Nap-dU at all n positions, plate ELISA, buffer SB18, 37 C

GCATAAGTCCGGATGGCAGCTTTATGC [AD008]
pKd [1]: 6.54

GCATAAGTCCGGATGGCAGCTTTATGCCGACC [AD007]
pKd ([2]; R2 97.0): 6.27

GACTAGCATAAGTCCGGATGGCAGCTTTATGCCG [AD006]
pKd ([2]; R2 75.9): 6.03
